Reference: the supplement of paper PMC6757056
± gives the standard deviation of the averaged measurements.

B1: library; a variant is named by its letters at N, in order (parent)
chain: GCUGUCACCGGUGCUUGGUACGUUAUAUUCAGCCGGUCUGAUGAGUCUNNNNNNAGACGAAACAGC

Assays:
(6R,S)-folinic acid [1] = variants of: B1; test: normalized RNA/DNA level without ligand (relative to sTRSVctl = 100) (log10 (% of sTRSVctl)); HEK293T overexpressing SLC46A1; higher = less ribozyme self-cleavage, higher mRNA level; settings: without (6R,S)-folinic acid; ligand present: no
How it was run: (§1)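 For each 6-well well, 4 µg of library plasmid encoding mCherry-linked ribozyme switches, or eGFP-linked ones in some ligand experiments, was transfected into HEK293T. Any ligand was added 1 h before transfection, and RNA was extracted with EDTA 72 h after it, then reverse-transcribed, amplified, barcoded and sequenced. RNA level was obtained by dividing RNA reads by DNA reads, normalizing to a spiked-in non-cleaving sequence or to the top sequences, then scaling and log-transforming. The top set was 25 sequences, scaling was ×100 with log10, and ≥100 DNA reads were required.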

(6R,S)-folinic acid [2] = variants of: B1; test: normalized RNA/DNA level with ligand (relative to sTRSVctl = 100) (log10 (% of sTRSVctl)); HEK293T overexpressing SLC46A1; ligand concentration (+) RNA-Seq: 6 mM; higher = less ribozyme self-cleavage, higher mRNA level; settings: with (6R,S)-folinic acid; ligand present: yes
How it was run: as §1

Variant | normalized RNA/DNA level without ligand (log10) ((6R,S)-folinic acid [1]) | normalized RNA/DNA level with ligand (log10) ((6R,S)-folinic acid [2])
GCUGUCACCGGUGCUUGGUACGUUAUAUUCAGCCGGUCUGAUGAGUCUGGUAGAAGACGAAACAGC [GGUAGA] | 1.995 ± 0.01 | 2.01 ± 0.022
GCUGUCACCGGUGCUUGGUACGUUAUAUUCAGCCGGUCUGAUGAGUCUAGUAGAAGACGAAACAGC [AGUAGA] | 1.943 ± 0.0031 | 2.018 ± 0.0096
GCUGUCACCGGUGCUUGGUACGUUAUAUUCAGCCGGUCUGAUGAGUCUGGGUGGAGACGAAACAGC [GGGUGG] | 2.056 ± 0.0092 | 2.04 ± 0.043
GCUGUCACCGGUGCUUGGUACGUUAUAUUCAGCCGGUCUGAUGAGUCUGGGUGUAGACGAAACAGC [GGGUGU] | 2.025 ± 0.011 | 2.06 ± 0.049
GCUGUCACCGGUGCUUGGUACGUUAUAUUCAGCCGGUCUGAUGAGUCUCGGUGGAGACGAAACAGC [CGGUGG] | 1.93 ± 0.024 | 1.99 ± 0.026
GCUGUCACCGGUGCUUGGUACGUUAUAUUCAGCCGGUCUGAUGAGUCUUGGUGCAGACGAAACAGC [UGGUGC] | 2.02 ± 0.03 | 2.02 ± 0.044
GCUGUCACCGGUGCUUGGUACGUUAUAUUCAGCCGGUCUGAUGAGUCUUGUAACAGACGAAACAGC [UGUAAC] | 1.95 ± 0.034 | 1.99 ± 0.038
GCUGUCACCGGUGCUUGGUACGUUAUAUUCAGCCGGUCUGAUGAGUCUGGGUUUAGACGAAACAGC [GGGUUU] | 2.029 ± 0.015 | 2.04 ± 0.036
GCUGUCACCGGUGCUUGGUACGUUAUAUUCAGCCGGUCUGAUGAGUCUGGGUUAAGACGAAACAGC [GGGUUA] | 2.052 ± 0.0032 | 2.034 ± 0.01
GCUGUCACCGGUGCUUGGUACGUUAUAUUCAGCCGGUCUGAUGAGUCUGGGUUCAGACGAAACAGC [GGGUUC] | 2.027 ± 0.006 | 2.001 ± 0.0053
GCUGUCACCGGUGCUUGGUACGUUAUAUUCAGCCGGUCUGAUGAGUCUUGUACGAGACGAAACAGC [UGUACG] | 1.772 ± 0.0054 | 1.98 ± 0.038
GCUGUCACCGGUGCUUGGUACGUUAUAUUCAGCCGGUCUGAUGAGUCUUGUACCAGACGAAACAGC [UGUACC] | 2.019 ± 0.0028 | 2.03 ± 0.057
GCUGUCACCGGUGCUUGGUACGUUAUAUUCAGCCGGUCUGAUGAGUCUUGUACAAGACGAAACAGC [UGUACA] | 1.958 ± 0.018 | 2 ± 0.051
GCUGUCACCGGUGCUUGGUACGUUAUAUUCAGCCGGUCUGAUGAGUCUCGUACAAGACGAAACAGC [CGUACA] | 2.01 ± 0.0077 | 2.041 ± 0.02
GCUGUCACCGGUGCUUGGUACGUUAUAUUCAGCCGGUCUGAUGAGUCUCGUACGAGACGAAACAGC [CGUACG] | 2.018 ± 0.011 | 2.0285 ± 0.0013
GCUGUCACCGGUGCUUGGUACGUUAUAUUCAGCCGGUCUGAUGAGUCUCGUACCAGACGAAACAGC [CGUACC] | 2.1 ± 0.0079 | 2.021 ± 0.016
GCUGUCACCGGUGCUUGGUACGUUAUAUUCAGCCGGUCUGAUGAGUCUCGUACUAGACGAAACAGC [CGUACU] | 2.0544 ± 0.00062 | 2.043 ± 0.0063
GCUGUCACCGGUGCUUGGUACGUUAUAUUCAGCCGGUCUGAUGAGUCUUGGUUAAGACGAAACAGC [UGGUUA] | 1.945 ± 0.013 | 2.01 ± 0.071
GCUGUCACCGGUGCUUGGUACGUUAUAUUCAGCCGGUCUGAUGAGUCUUGGUUCAGACGAAACAGC [UGGUUC] | 2.01 ± 0.011 | 2.01 ± 0.081
GCUGUCACCGGUGCUUGGUACGUUAUAUUCAGCCGGUCUGAUGAGUCUUGGUUUAGACGAAACAGC [UGGUUU] | 1.95 ± 0.021 | 1.97 ± 0.026
GCUGUCACCGGUGCUUGGUACGUUAUAUUCAGCCGGUCUGAUGAGUCUCGUAAGAGACGAAACAGC [CGUAAG] | 2.011 ± 0.0091 | 2.03 ± 0.018

Variant | normalized RNA/DNA level without ligand (log10) ((6R,S)-folinic acid [1]) | normalized RNA/DNA level with ligand (log10) ((6R,S)-folinic acid [2])
GCUGUCACCGGUGCUUGGUACGUUAUAUUCAGCCGGUCUGAUGAGUCUCGUAACAGACGAAACAGC [CGUAAC] | 1.98 ± 0.025 | 1.99 ± 0.043
GCUGUCACCGGUGCUUGGUACGUUAUAUUCAGCCGGUCUGAUGAGUCUGGUACGAGACGAAACAGC [GGUACG] | 2.025 ± 0.017 | 2.04 ± 0.049
GCUGUCACCGGUGCUUGGUACGUUAUAUUCAGCCGGUCUGAUGAGUCUGGUACUAGACGAAACAGC [GGUACU] | 2.063 ± 0.0044 | 2.04 ± 0.022
GCUGUCACCGGUGCUUGGUACGUUAUAUUCAGCCGGUCUGAUGAGUCUGGUACCAGACGAAACAGC [GGUACC] | 2.067 ± 0.015 | 2.03 ± 0.04
GCUGUCACCGGUGCUUGGUACGUUAUAUUCAGCCGGUCUGAUGAGUCUGGUAACAGACGAAACAGC [GGUAAC] | 1.99 ± 0.041 | 2.005 ± 0.012
GCUGUCACCGGUGCUUGGUACGUUAUAUUCAGCCGGUCUGAUGAGUCUUGUAGAAGACGAAACAGC [UGUAGA] | 1.84 ± 0.021 | 2.002 ± 0.017
GCUGUCACCGGUGCUUGGUACGUUAUAUUCAGCCGGUCUGAUGAGUCUAGGUUGAGACGAAACAGC [AGGUUG] | 2.005 ± 0.013 | 2.04 ± 0.053
GCUGUCACCGGUGCUUGGUACGUUAUAUUCAGCCGGUCUGAUGAGUCUAGGUUCAGACGAAACAGC [AGGUUC] | 2.02 ± 0.024 | 2.03 ± 0.045
GCUGUCACCGGUGCUUGGUACGUUAUAUUCAGCCGGUCUGAUGAGUCUAGUACAAGACGAAACAGC [AGUACA] | 1.983 ± 0.0056 | 2 ± 0.038
GCUGUCACCGGUGCUUGGUACGUUAUAUUCAGCCGGUCUGAUGAGUCUAGUACCAGACGAAACAGC [AGUACC] | 2.07 ± 0.0045 | 2.04 ± 0.044
GCUGUCACCGGUGCUUGGUACGUUAUAUUCAGCCGGUCUGAUGAGUCUAGUACUAGACGAAACAGC [AGUACU] | 2.008 ± 0.0088 | 2.02 ± 0.043
GCUGUCACCGGUGCUUGGUACGUUAUAUUCAGCCGGUCUGAUGAGUCUCGUAGCAGACGAAACAGC [CGUAGC] | 2.03 ± 0.023 | 2.03 ± 0.022
GCUGUCACCGGUGCUUGGUACGUUAUAUUCAGCCGGUCUGAUGAGUCUCGUAGAAGACGAAACAGC [CGUAGA] | 1.9919 ± 0.00011 | 1.99 ± 0.043
GCUGUCACCGGUGCUUGGUACGUUAUAUUCAGCCGGUCUGAUGAGUCUAGGUGCAGACGAAACAGC [AGGUGC] | 2.0042 ± 0.0006 | 2.01 ± 0.044
GCUGUCACCGGUGCUUGGUACGUUAUAUUCAGCCGGUCUGAUGAGUCUCGGUUUAGACGAAACAGC [CGGUUU] | 2.033 ± 0.017 | 2.056 ± 0.012
GCUGUCACCGGUGCUUGGUACGUUAUAUUCAGCCGGUCUGAUGAGUCUCGGUUGAGACGAAACAGC [CGGUUG] | 2.026 ± 0.02 | 2 ± 0.065
GCUGUCACCGGUGCUUGGUACGUUAUAUUCAGCCGGUCUGAUGAGUCUCGGUUCAGACGAAACAGC [CGGUUC] | 2.02 ± 0.0095 | 2.01 ± 0.07
GCUGUCACCGGUGCUUGGUACGUUAUAUUCAGCCGGUCUGAUGAGUCUAGUAACAGACGAAACAGC [AGUAAC] | 2.003 ± 0.0042 | 2.01 ± 0.026
GCUGUCACCGGUGCUUGGUACGUUAUAUUCAGCCGGUCUGAUGAGUCUAGUAAUAGACGAAACAGC [AGUAAU] | 1.99 ± 0.02 | 2 ± 0.026
GCUGUCACCGGUGCUUGGUACGUUAUAUUCAGCCGGUCUGAUGAGUCUAGUAAGAGACGAAACAGC [AGUAAG] | 1.897 ± 0.0041 | 2.01 ± 0.057
